In article PMC8588329:

Molecular target: recombinant Plasmodium knowlesi lactate dehydrogenase (Plasmodium knowlesi)
Assay: SEC; Superdex 200 10/300 GL, 50 mM phosphate buffer pH 7.4, 250 mM NaCl, 0.50 mL/min; elution volume 13 mL set against a calibration curve of protein standards

stoichiometry N: 4
Substance: recombinant Plasmodium knowlesi lactate dehydrogenase (enzyme)
